14 molecules from patent US20250340657A1 (CANTARGIA, published 2025) can be followed below.

The labels stand for the following.
B1: hCAN04 Variant 6 (antibody, human IgG1, kappa, V domains shown)
VH: QVQLVQSGAEVKKPGSSVKVSCKASGYAFTSSWMNWVRQAPGQGLEWMGRIYPGDGNTHYAQKFQGRVTLTADKSTSTAYMELSSLRSEDTAVYYCGEGYLDPMDYWGQGTLVTVSS
VL: DIQMTQSPSSLSASVGDRVTITCQASQGINNYLNWYQQKPGKAPKLLIHYTSGLHAGVPSRFSGSGSGTDYTLTISSLEPEDVATYYCQQYSILPWTFGGGTKVEIKR
notes: Human IgG1za / kappa, expressed in CHOK1SV cells; also called Var6; humanized variant 6 of CAN04
B2: hCAN04 Variant 9 (antibody, human IgG1, kappa, V domains shown)
VH: QVQLVQSGAEVKKPGSSVKVSCKASGYAFSSSWMNWVRQAPGQGLEWMGRIYPGDGNTHYAQKFQGRVTLTADKSTSTAYMELSSLRSEDTAVYYCGEGYLDPMDYWGQGTLVTVSS
VL: DIQMTQSPSSLSASVGDRVTITCQASQGINNYLNWYQQKPGKAPKLLIHYTSGLHAGVPSRFSGSGSGTDFTLTISSLEPEDVATYYCQQYSILPWTFGGGTKVEIKR
notes: Human IgG1za / kappa, expressed in CHOK1SV cells; also called Var9; humanized variant 9 of CAN04
B3: hCAN04 Variant 12 (antibody, human IgG1, kappa, V domains shown)
VH: QVQLVQSGAEVKKPGSSVKVSCKASGYTFTSSWMNWVRQAPGKGLEWMGRIYPGDGQTHYAQKFQGRVTITADKSTSTAYMELSSLRSEDTAVYYCGEGYLDPMDYWGQGTLVTVSS
VL: DIQMTQSPSSLSASVGDRVTITCQASQGINNYLNWYQQKPGKAPKLLIHYTSGLHAGVPSRFSGSGSGTDFTLTISSLEPEDVATYYCQQYSILPWTFGGGTKVEIKR
notes: Human IgG1za / kappa, expressed in CHOK1SV cells; also called Var 12; humanized variant 12 of CAN04
B4: hCAN04 Variant 11 (antibody, human IgG1, kappa, V domains shown)
VH: QVQLVQSGAEVKKPGSSVKVSCKASGYTFTSSWMNWVRQAPGKGLEWMGRIYPGDGQTHYAQKFQGRVTLTADKSTSTAYMELSSLRSEDTAVYYCGEGYLDPMDYWGQGTLVTVSS
VL: DIQMTQSPSSLSASVGDRVTITCQASQGINNYLNWYQQKPGKAPKLLIHYTSGLHAGVPSRFSGSGSGTDFTLTISSLEPEDVATYYCQQYSILPWTFGGGTKVEIKR
notes: Human IgG1za / kappa, expressed in CHOK1SV cells; also called Var11; humanized variant 11 of CAN04
B5: hCAN04 Variant 2 (antibody, human IgG1, kappa, V domains shown)
VH: QVQLVQSGAEVKKPGSSVKVSCKASGYAFTSSWMNWVRQAPGQGLEWMGRIYPGDGNTHYAQKFQGRVTLTADKSTSTAYMELSSLRSEDTAVYYCGEGYLDPMDYWGQGTLVTVSS
VL: DIQMTQSPSSLSASVGDRVTITCSASQGINNYLNWYQQKPGKAPKLLIHYTSGLHAGVPSRFSGSGSGTDYTLTISSLQPEDVATYYCQQYSILPWTFGGGTKVEIKR
notes: Human IgG1za / kappa, expressed in CHOK1SV cells; also called Var2; humanized variant 2 of CAN04
B6: hCAN04 Variant 3 (antibody, human IgG1, kappa, V domains shown)
VH: QVQLVQSGAEVKKPGSSVKVSCKASGYTFTSSWMNWVRQAPGKGLEWMGRIYPGDGQTHYAQKFQGRVTLTADKSTSTAYMELSSLRSEDTAVYYCGEGYLDPMDYWGQGTLVTVSS
VL: DIQMTQSPSSLSASVGDRVTITCSASQGINNYLNWYQQKPGKAPKLLIHYTSGLHAGVPSRFSGSGSGTDYTLTISSLQPEDVATYYCQQYSILPWTFGGGTKVEIKR
notes: Human IgG1za / kappa, expressed in CHOK1SV cells; also called Var3; humanized variant 3 of CAN04
B7: hCAN04 Variant 8 (antibody, human IgG1, kappa, V domains shown)
VH: QVQLVQSGAEVKKPGSSVKVSCKASGYTFTSSWMNWVRQAPGKGLEWMGRIYPGDGQTHYAQKFQGRVTITADKSTSTAYMELSSLRSEDTAVYYCGEGYLDPMDYWGQGTLVTVSS
VL: DIQMTQSPSSLSASVGDRVTITCQASQGINNYLNWYQQKPGKAPKLLIHYTSGLHAGVPSRFSGSGSGTDYTLTISSLEPEDVATYYCQQYSILPWTFGGGTKVEIKR
notes: Human IgG1za / kappa, expressed in CHOK1SV cells; also called Var8; humanized variant 8 of CAN04
B8: hCAN04 Variant 5 (antibody, human IgG1, kappa, V domains shown)
VH: QVQLVQSGAEVKKPGSSVKVSCKASGYAFSSSWMNWVRQAPGQGLEWMGRIYPGDGNTHYAQKFQGRVTLTADKSTSTAYMELSSLRSEDTAVYYCGEGYLDPMDYWGQGTLVTVSS
VL: DIQMTQSPSSLSASVGDRVTITCQASQGINNYLNWYQQKPGKAPKLLIHYTSGLHAGVPSRFSGSGSGTDYTLTISSLEPEDVATYYCQQYSILPWTFGGGTKVEIKR
notes: Human IgG1za / kappa, expressed in CHOK1SV cells; also called Var5; humanized variant 5 of CAN04
B9: hCAN04 Variant 7 (antibody, human IgG1, kappa, V domains shown)
VH: QVQLVQSGAEVKKPGSSVKVSCKASGYTFTSSWMNWVRQAPGKGLEWMGRIYPGDGQTHYAQKFQGRVTLTADKSTSTAYMELSSLRSEDTAVYYCGEGYLDPMDYWGQGTLVTVSS
VL: DIQMTQSPSSLSASVGDRVTITCQASQGINNYLNWYQQKPGKAPKLLIHYTSGLHAGVPSRFSGSGSGTDYTLTISSLEPEDVATYYCQQYSILPWTFGGGTKVEIKR
notes: Human IgG1za / kappa, expressed in CHOK1SV cells; also called Var7; humanized variant 7 of CAN04
B10: hCAN04 Variant 4 (antibody, human IgG1, kappa, V domains shown)
VH: QVQLVQSGAEVKKPGSSVKVSCKASGYTFTSSWMNWVRQAPGKGLEWMGRIYPGDGQTHYAQKFQGRVTITADKSTSTAYMELSSLRSEDTAVYYCGEGYLDPMDYWGQGTLVTVSS
VL: DIQMTQSPSSLSASVGDRVTITCSASQGINNYLNWYQQKPGKAPKLLIHYTSGLHAGVPSRFSGSGSGTDYTLTISSLQPEDVATYYCQQYSILPWTFGGGTKVEIKR
notes: Human IgG1za / kappa, expressed in CHOK1SV cells; also called Var4; humanized variant 4 of CAN04
B11: hCAN04 Variant 1 (antibody, human IgG1, kappa, V domains shown)
VH: QVQLVQSGAEVKKPGSSVKVSCKASGYAFSSSWMNWVRQAPGQGLEWMGRIYPGDGNTHYAQKFQGRVTLTADKSTSTAYMELSSLRSEDTAVYYCGEGYLDPMDYWGQGTLVTVSS
VL: DIQMTQSPSSLSASVGDRVTITCSASQGINNYLNWYQQKPGKAPKLLIHYTSGLHAGVPSRFSGSGSGTDYTLTISSLQPEDVATYYCQQYSILPWTFGGGTKVEIKR
notes: Human IgG1za / kappa, expressed in CHOK1SV cells; also called Var1; humanized variant 1 of CAN04
B12: hCAN04 Variant 10 (antibody, human IgG1, kappa, V domains shown)
VH: QVQLVQSGAEVKKPGSSVKVSCKASGYAFTSSWMNWVRQAPGQGLEWMGRIYPGDGNTHYAQKFQGRVTLTADKSTSTAYMELSSLRSEDTAVYYCGEGYLDPMDYWGQGTLVTVSS
VL: DIQMTQSPSSLSASVGDRVTITCQASQGINNYLNWYQQKPGKAPKLLIHYTSGLHAGVPSRFSGSGSGTDFTLTISSLEPEDVATYYCQQYSILPWTFGGGTKVEIKR
notes: Human IgG1za / kappa, expressed in CHOK1SV cells; also called Var10; humanized variant 10 of CAN04
B13: CAN04 (murine) as listed in Table 3 (antibody, human IgG1, kappa, V domains shown)
VH: QVQLQQSGPELLKPGASVKISCKASGYAFSSSWMNWVKQRPGKGLEWIGRIYPGDGNTHYSGKFKGKATLTADKSSSIAYMQLSSLTSEDSAVYFCGEGYLDPMDYWGQGTSVTVSS
VL: DIQMTQTTSSLSASLGDRVTISCSASQGINNYLNWYQQKPDGTVKLLIHYTSGLHAGVPSRFSGSGSGTDYSLTISNLEPEDVATYYCQQYSILPWTFGGGTKLEIKR
notes: Whether the footnotes apply to the row labelled '(murine)' is not certain
B14: CAN04 (antibody, V domains shown)
VH: QVQLQQSGPELLKPGASVKISCKASGYAFSSSWMNWVKQRPGKGLEWIGRIYPGDGNTHYSGKFKGKATLTADKSSSIAYMQLSSLTSEDSAVYFCGEGYLDPMDYWGQGTSVTVSS
VL: DIQMTQTTSSLSASLGDRVTISCSASQGINNYLNWYQQKPDGTVKLLIHYTSGLHAGVPSRFSGSGSGTDYSLTISNLEPEDVATYYCQQYSILPWTFGGGTKLEIKR
notes: Murine-derived monoclonal IgG; It was PE-conjugated on primary cells and AF488-labelled for confocal microscopy; also called exemplary antibody of the invention

The first experiment addresses T1, recombinant hIL1RAP 21-367 (human, UniProt Q9NPH3 21-367).
T1 construct: range 21-367; also called Rec hIL1RAP Domain123 (aa21-367); Domain123
Put plainly: indirect ELISA on coated hIL1RAP 21-367, three-fold dilutions from 3.5 nM. The method, then:
An indirect ELISA assay was performed. All samples were analysed in duplicate. Nunc-MaxiSorp 96 Micro Well™ Plates were coated with 100 ng of recombinant hIL1RAP 21-367 (100 μl/well) diluted in 0.01M PBS, pH 7.4, and incubated overnight at 4° C. Plates were washed with ELISA washing buffer (0.01M PBS, 0.05% Tween 20, pH 7.4) followed by a blocking step using 150 μl/well of ELISA blocking solution (PBS, 0.5% BSA, 0.05% Tween 20, pH 7.4). After 1 h incubation at room temperature (RT) on agitation the plates were washed again using ELISA washing buffer. Samples were diluted in three fold serial dilution (ranging from 1000 ng/ml to 0.5 ng/ml) in ELISA blocking solution and then transferred to the ELISA plate, 100 μl/well. Plates were incubated at RT for 1 h on agitation and then washed with ELISA washing solution. 100 μl/well of rabbit anti-mouse IgG conjugated to Alkaline Phosohatase (DAKO, 1:1000) was added and incubated 1 hour at RT on agitation. The plates were washed followed by addition of substrate (4-Nitrophenyl phosphatise disodium salt hexahydrate, SIGMA, 1 mg/ml), 100 μl/well. The plates were thereafter incubated at RT on agitation and absorbance at 405 nm measured consecutively for 30 min. Absorbance at 0 min was taken as background signal.
An indirect ELISA assay was performed as described above with the alteration that the samples were diluted in a three-fold serial dilution starting at 3.5 nM and run in replicates of four.
(ELISA stands for enzyme-linked immunosorbent assay.)
By Kd is commonly meant the constant that tells how readily two partners part at equilibrium. Consider B1, for which the dissociation constant (Kd) stood at 0.173 nM.

Turning to B2, the Kd is 0.21 nM.

Consider B3, for which the Kd was 0.62 nM.

On to B4, for which the Kd was found to be 0.504 nM.

Take B5: the Kd came out at 0.171 nM.

With B6, the Kd stood at 0.45 nM.

On to B7, for which the Kd is 0.402 nM.

B8: the Kd worked out at 0.135 nM.

On to B9, for which the Kd is 0.526 nM.

Regarding B10, the Kd was 0.47 nM.

With B11, the Kd was 0.125 nM.

For B12, the Kd amounted to 0.301 nM.

Consider B13, for which the Kd was 0.088 nM.

For another experiment, the target named is T2, human IL1RAP (analyte of the Biacore study) (human, UniProt Q9NPH3 21-367, limits assumed).
T2 construct: The methods say only 'the analyte (100 nM)'; The result sentence names it human IL1RAP; also called IL1-RAP protein; the analyte
Kind of experiment: SPR (Biacore T200), antibody captured on anti-mouse IgG, analyte 100 nM, 25 C. The method, then:
Goat anti-mouse IgG was immobilized on a CM5 chip according to the technical manual of capture kit and standard operation principle of BIAcore T200 (Biacore Life Sciences, GE Healthcare Europe GmbH, Uppsala, Sweden).
The capture molecule surface was regenerated after each binding cycle using the manufacturer's recommended conditions.
After five cycles of start-up, each antibody (100 nM) was injected at a flow rate of 30 μl/min, for 120 s, at the start of the cycle; then the analyte (100 nM) was injected at a flow rate of 30 μl/min, for 120 s, followed by monitoring the dissociation phase for 300 s.
In general terms: Surface plasmon resonance follows binding to a sensor surface in real time, without labels.
As usually defined, the koff is the first-order rate constant of dissociation. A lower koff goes with a long-lived complex. What is called kon is the rate constant with which the complex forms. A higher kon goes with faster complex formation. With B14, binding was put at a Kd of 0.11 nM, the off-rate (koff) came out at 4.72e-05 s⁻¹ and the on-rate (kon) was 427000 M⁻¹ s⁻¹.
